Laboratory results taken from US6887705B1, “Tyrosine phosphorylated cleavage furrow-associated proteins (PSTPIPs)” (Genentech, Inc., priority 1997, dated 2005).
Numbering of substitutions follows the chain as printed.

How the values were obtained:
Test in all cases: in vitro translated PTP HSCF mutant precipitated with 1 or 10 µg/ml GST PST PIP
[1] = molecular target: T1, PTP HSCF with R444 mutated to alanine, HA tagged (UniProt Q61152 1-453)
T1 construct: range 1-453; also called HSCF R444
T1 sequence (looked up): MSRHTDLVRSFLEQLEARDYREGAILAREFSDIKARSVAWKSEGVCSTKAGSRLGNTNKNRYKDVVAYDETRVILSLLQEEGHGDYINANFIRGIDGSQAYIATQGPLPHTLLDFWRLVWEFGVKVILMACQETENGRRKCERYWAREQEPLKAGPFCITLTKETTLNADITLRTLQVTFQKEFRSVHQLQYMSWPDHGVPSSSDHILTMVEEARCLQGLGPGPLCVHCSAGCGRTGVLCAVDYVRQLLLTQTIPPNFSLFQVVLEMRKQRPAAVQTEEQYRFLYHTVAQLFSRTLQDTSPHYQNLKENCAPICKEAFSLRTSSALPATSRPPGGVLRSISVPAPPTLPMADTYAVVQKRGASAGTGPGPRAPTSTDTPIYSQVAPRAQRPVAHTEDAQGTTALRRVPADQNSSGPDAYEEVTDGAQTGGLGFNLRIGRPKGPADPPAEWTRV
Description: (§1) Multiple bands precipitated with the GST PST PIP fusion protein are apparently C-terminal proteolyzed products of the PTP. Also shown are GST PST PIP precipitations (10 μg/ml) performed on a double mutant of PTP HSCF (R+W) with both residues $R444$ and $W450$ mutated to alanine (bottom panel FIG. 14 A/2). B. COS cells were co-transfected with a 10:1 ratio of plasmids encoding hemagglutinin (HA) tagged PTP HSCF with the illustrated alanine substitutions or a mutant of PTP HSCF deleted for the C-terminal 24 amino acids (PTP $HSCFD24$) and wild type PST PIP with a C-terminal FLAG epitope tag, respectively. Transfected cell lysates were immunoprecipitated with anti-HA monoclonal antibodies and the precipitates were blotted with anti-PST PIP polyclonal antibody to detect the relative amounts of PST PIP complexed with either wild type or different mutant forms of PTP HSCF. Lysates were also immunoprecipitated with anti-HA antibody and blotted with the same antibody to insure equal expression of PTP HSCF. Equal expression of PSTPIP was determined by immunoprecipitating lysates with anti-FLAG monoclonal antibody and blotting with anti-PST PIP polyclonal antibody.
(§2) In vitro binding analyses between various PTP HSCF and PST PIP constructs were performed as previously described (Spencer et al, (1997), supra). Briefly, plasmids were transcribed and translated in vitro using the TnT Rabbit Reticulocyte Lysate System (Promega). Samples were diluted in 50 mM HEPES, pH 7.2, 1% triton X-100, 10% glycerol, 100 mM NaCl, and 2 µg/ml each of leupeptin, pepstatin, aprotinin and PMSF (lysis buffer). Samples were than reacted with GST fusion proteins at various concentrations, and the bound proteins were centrifuged using glutathione-sepharose beads and analyzed on SDS polyacrylamide gels. C-terminally-derived peptide inhibition studies were performed by incubating the GST fusion protein binding reactions in the presence of 10 µg/ml of the indicated peptides. Peptides were produced by FMOC-protected amino acids as previously described (Spencer et al, (1997), supra). In vivo interactions between various forms of PTP HSCF and PST PIP were also performed as previously described (Spencer et al, (1997), supra).

[2] = molecular target: T2, PTP HSCF with G442 mutated to alanine, HA tagged (UniProt Q61152 1-453)
T2 construct: range 1-453; also called HSCF G442
T2 sequence (looked up): T1 sequence (looked up) with G442A, A444R
Description: as §1, §2

[3] = molecular target: T3, PTP HSCF with P443 mutated to alanine, HA tagged (UniProt Q61152 1-453)
T3 construct: range 1-453; also called HSCF P443
T3 sequence (looked up): T1 sequence (looked up) with P443A, A444R
Description: as §1, §2

Measured: binding result

B1: GST-PSTPIP (GST fusion of full-length PSTPIP, amino acids 2-415) (other)
chain: MAQLQFRDAFWCRDFTAHTGYEVLLQRLLDGRKMCKDVEELLRQRAQAEERYGKELVQIARKAGGQTEMNSLRTSFDSLKQQTENVGSAHIQLALALREELRSLEEFRERQKEQRKKYEAIMDRVQKSKLSLYKKTMESKKAYDQKCRDADDAEQAFERVSANGHQKQVEKSQNKAKQCKESATEAERVYRQNIEQLERARTEWEQEHRTTCEAFQLQEFDRLTILRNALWVHCNQLSMQCVKDDELYEEVRLTLEGCDVEGDINGFIQSKSTGREPPAPVPYQNYYDREVTPLIGSPSIQPSCGVIKRFSGLLHGSPKTTPSAPAASTETLTPTPERNELVYASIEVQATQGNLNSSAQDYRALYDYTAQNSDELDISAGDILAVILEGEDGWWTVERNGQRGFVPGSYLEKL
notes: Made in DH5-alpha bacteria from pGEX4T-2; also called GST-full-length PSTPIP; GST PTP PIP; not shown: glutathione S-transferase encoded by pGEX-4T-2 (Pharmacia)
binds: all assays above
